We go through five molecules from patent US20030175712A1 (published 2003).

The target of assay [1] is Gβγ (Ste4p/Ste18p) in yeast cells (S. cerevisiae) (UniProt P18852). The assay is described as follows: cell-based or functional assay.
The target of the next assay is T1, 3×myc-Cdc24-m1 mutant (S. cerevisiae, UniProt P11433 1-854).
T1 sequence (looked up): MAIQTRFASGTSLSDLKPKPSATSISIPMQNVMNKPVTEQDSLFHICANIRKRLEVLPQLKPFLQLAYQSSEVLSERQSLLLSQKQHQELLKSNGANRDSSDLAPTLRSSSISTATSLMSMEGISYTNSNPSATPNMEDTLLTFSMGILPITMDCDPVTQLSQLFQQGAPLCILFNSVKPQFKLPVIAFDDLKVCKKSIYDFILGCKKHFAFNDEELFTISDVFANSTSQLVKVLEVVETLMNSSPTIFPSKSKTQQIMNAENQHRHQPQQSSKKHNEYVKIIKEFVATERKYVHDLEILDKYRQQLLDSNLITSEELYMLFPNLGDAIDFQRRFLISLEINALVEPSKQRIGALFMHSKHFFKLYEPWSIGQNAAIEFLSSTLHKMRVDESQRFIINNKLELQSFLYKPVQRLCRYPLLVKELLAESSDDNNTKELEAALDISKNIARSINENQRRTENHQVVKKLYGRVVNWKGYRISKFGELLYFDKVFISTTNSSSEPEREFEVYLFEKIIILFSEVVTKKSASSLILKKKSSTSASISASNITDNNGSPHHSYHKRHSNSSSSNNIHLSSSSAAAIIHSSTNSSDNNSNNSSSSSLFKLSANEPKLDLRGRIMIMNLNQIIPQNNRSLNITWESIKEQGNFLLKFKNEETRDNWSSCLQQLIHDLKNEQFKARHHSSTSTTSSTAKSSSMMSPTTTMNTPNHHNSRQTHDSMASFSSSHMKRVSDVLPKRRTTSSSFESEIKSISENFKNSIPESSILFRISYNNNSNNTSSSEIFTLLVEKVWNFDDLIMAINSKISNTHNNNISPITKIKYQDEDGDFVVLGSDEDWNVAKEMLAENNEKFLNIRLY
Nature of the assay: co-precipitation with Far1-protein A on IgG-Sepharose from yeast extracts. The text has this: Although cdc24-m and far1-s mutants result in similar defects in growth orientation during mating, we set out to determine if these genes function in the same orientation process. […] Cdc24 and Far1 were epitope tagged in order to determine whether these proteins interact in yeast cells. The chronosomal copy of Cdc24 was replaced with a 3×myc tagged Cdc24 and the chromosomal copy of Far1 was replaced with Far1 protein A fusion. Both of these fusion proteins are fully functional. Isolation of Far1-protein A from yeast extracts using IgG-Sepharose co-precipitated 3×myc-Cdc24. In contrast, the 3×myc-Cdc24-m1 mutant was defective in binding Far1 in similar imnmunoprecipitation assays.

The target in assay [2] is T2, Cdc24p, two-hybrid construct (limits not stated) (S. cerevisiae, UniProt P11433 1-288).
T2 construct: not shown: GAL4 two-hybrid fusion partner
T2 sequence (looked up): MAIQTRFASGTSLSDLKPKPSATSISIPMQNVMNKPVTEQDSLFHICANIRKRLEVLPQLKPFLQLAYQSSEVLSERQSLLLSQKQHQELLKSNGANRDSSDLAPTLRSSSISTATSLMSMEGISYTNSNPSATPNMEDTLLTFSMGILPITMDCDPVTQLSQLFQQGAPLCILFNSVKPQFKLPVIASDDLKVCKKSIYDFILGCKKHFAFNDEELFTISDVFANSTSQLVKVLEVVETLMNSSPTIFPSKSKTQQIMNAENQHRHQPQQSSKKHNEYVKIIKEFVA
Nature of the assay: yeast two-hybrid screen.

The target in the next assay is T3, MBP-Far1 H7 (S. cerevisiae, UniProt P21268 1-755).
T3 sequence (looked up): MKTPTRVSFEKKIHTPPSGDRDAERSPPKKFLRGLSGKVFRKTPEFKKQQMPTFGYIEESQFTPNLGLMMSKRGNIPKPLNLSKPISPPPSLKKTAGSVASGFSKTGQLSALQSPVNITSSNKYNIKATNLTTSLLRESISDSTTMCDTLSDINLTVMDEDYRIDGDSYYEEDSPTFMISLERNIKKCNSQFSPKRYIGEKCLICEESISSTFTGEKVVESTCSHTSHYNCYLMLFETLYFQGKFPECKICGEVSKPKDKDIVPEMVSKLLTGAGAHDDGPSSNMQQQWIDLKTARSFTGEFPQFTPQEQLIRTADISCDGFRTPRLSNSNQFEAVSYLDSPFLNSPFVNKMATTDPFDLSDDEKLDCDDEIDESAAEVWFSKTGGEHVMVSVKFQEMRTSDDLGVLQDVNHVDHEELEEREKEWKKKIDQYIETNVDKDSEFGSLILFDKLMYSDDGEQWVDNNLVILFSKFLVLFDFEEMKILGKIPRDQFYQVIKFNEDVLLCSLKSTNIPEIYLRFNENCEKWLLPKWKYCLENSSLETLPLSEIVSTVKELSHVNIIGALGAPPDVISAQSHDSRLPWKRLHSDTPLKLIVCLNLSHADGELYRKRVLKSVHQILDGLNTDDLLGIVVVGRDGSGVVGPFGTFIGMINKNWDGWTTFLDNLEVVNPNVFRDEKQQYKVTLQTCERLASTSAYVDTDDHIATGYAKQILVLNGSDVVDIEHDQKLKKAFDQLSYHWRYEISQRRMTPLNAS
Nature of the assay: in vitro binding of purified MBP-Far1 and GST-Cdc24 fusions.

The target of another assay is T4, MBP-Far1 (S. cerevisiae, UniProt P21268 1-830, limits assumed).
T4 construct: Expressed and purified from E. coli
T4 sequence (looked up): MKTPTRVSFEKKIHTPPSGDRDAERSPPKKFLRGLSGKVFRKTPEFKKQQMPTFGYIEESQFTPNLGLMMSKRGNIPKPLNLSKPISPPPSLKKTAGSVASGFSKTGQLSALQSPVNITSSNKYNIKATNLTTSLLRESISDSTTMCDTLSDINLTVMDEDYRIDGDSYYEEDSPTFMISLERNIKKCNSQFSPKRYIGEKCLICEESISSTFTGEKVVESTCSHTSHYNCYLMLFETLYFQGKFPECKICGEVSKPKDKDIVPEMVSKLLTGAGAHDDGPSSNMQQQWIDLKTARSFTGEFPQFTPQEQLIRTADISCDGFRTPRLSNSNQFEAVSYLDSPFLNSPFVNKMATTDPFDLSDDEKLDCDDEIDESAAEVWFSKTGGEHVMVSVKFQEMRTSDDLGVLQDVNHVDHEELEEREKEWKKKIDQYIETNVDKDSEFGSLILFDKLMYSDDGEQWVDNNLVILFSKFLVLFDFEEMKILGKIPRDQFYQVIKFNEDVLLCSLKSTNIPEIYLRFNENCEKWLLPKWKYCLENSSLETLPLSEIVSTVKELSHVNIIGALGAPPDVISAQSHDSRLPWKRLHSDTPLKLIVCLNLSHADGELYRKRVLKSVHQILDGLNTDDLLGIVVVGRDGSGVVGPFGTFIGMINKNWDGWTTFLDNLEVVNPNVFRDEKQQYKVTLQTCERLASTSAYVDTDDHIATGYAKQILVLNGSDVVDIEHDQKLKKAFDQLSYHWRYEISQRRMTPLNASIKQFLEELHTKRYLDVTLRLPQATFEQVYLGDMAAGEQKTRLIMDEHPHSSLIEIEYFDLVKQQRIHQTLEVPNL
Nature of the assay: in vitro binding of fusion proteins purified from E. coli.

Positions count from the first letter of the chain named.

Sequence of Gβγ (Ste4p/Ste18p) in yeast cells (S. cerevisiae) (P18852 1-107): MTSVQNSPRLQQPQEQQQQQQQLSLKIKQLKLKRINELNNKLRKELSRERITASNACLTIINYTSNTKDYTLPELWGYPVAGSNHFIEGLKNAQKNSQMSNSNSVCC

The molecule “Cdc24p in CDC24 (wild type) yeast cells (from UniProt P11433 1-854)” returned an average cosine of the angle of cell projection relative to the micropipet (orientation in a pheromone gradient) in assay [1] of 0.52.

B1: Far1 protein A fusion (other, S. cerevisiae, UniProt P21268 1-830, looked up)
chain: T4 sequence (looked up)
notes: Isolated from yeast extracts on IgG-Sepharose; not shown: protein A moiety
With B1, the binding result with 3×myc-Cdc24-m1 mutant was “no binding”.

B2: Ste4p mutant (SEQ. I.D. No: 13) (other)
chain: MAHQMDSITYSNNVTQQYIQPQSLQDISAVEEEIQNKIEAARQESKQLHAQINKAKHKIQDASLFQMANKVTSLTKNKINLKPNIVLKGHNNKISDFRWSRDSKRILSASQDGFMLIWDSASGLKQNAIPLDSQWVLSCAISPSSTLVASAGLNNNCTIYRVSKENRVAQNVASIFKGHTCYISDIEFTDNAHILTASGDMTCALWDIPKAKRVRGYSDHLGDVLALAIPEEPNLENSSNTFASCGSDGYTYIWDSRSPSAVQSFYVNDSDINALRFFKDGMSIVAGSDNGAINMYDLRSDCSIATFSLFRGYEERTPTPTYMAANMEYNTAQSPQTLKSTSSSYLDNQGVVSLDFSASGRLMYSCYTDIGCVVWDVLKGEIVGKLEGHGGRVTGVRSSPDGLAVCTGSWDSTMKIWSPGYQ
notes: Isolated in a two-hybrid screen; also called mutant G protein β subunit; I.D. No: 12 (nucleotide); not shown: GAL4 two-hybrid fusion partner
Regarding B2, the binding result in assay [2] is listed as “no binding”.

B3: Ste4p mutant (SEQ. I.D. No: 15) (other)
chain: B2 chain with G216E, V351A
notes: Isolated in a two-hybrid screen; also called mutant G protein β subunit; I.D. No: 14 (nucleotide); not shown: GAL4 two-hybrid fusion partner
As to B3, in assay [2], the binding result is given as “no binding”.

B4: GSTCdc24p (1-472 aa) (other, S. cerevisiae, UniProt P11433 1-472, looked up)
chain: MAIQTRFASGTSLSDLKPKPSATSISIPMQNVMNKPVTEQDSLFHICANIRKRLEVLPQLKPFLQLAYQSSEVLSERQSLLLSQKQHQELLKSNGANRDSSDLAPTLRSSSISTATSLMSMEGISYTNSNPSATPNMEDTLLTFSMGILPITMDCDPVTQLSQLFQQGAPLCILFNSVKPQFKLPVIASDDLKVCKKSIYDFILGCKKHFAFNDEELFTISDVFANSTSQLVKVLEVVETLMNSSPTIFPSKSKTQQIMNAENQHRHQPQQSSKKHNEYVKIIKEFVATERKYVHDLEILDKYRQQLLDSNLITSEELYMLFPNLGDAIDFQRRFLISLEINALVEPSKQRIGALFMHSKHFFKLYEPWSIGQNAAIEFLSSTLHKMRVDESQRFIINNKLELQSFLYKPVQRLCRYPLLVKELLAESSDDNNTKELEAALDISKNIARSINENQRRTENHQVVKKLYGRVV
notes: range 1-472; Expressed in E. coli; also called GSTCdc24 fusion; GST Cdc24 fusion (residues 1-472); not shown: glutathione-S-transferase as encoded by pGEX-2T (Pharmacia)
As for B4, the binding result is given as “no binding” with MBP-Far1 H7 and “binds” in the assay with MBP-Far1.
